Results on 2 molecules are retold here after paper PMC4454446.

Read-outs that look alike come from different tables or passages of the source.

Assay [1] addresses chicken bestrophin-1 crystallization construct, amino acids 1-405 (Best1_(cryst)) (chicken (Gallus gallus)). As to the kind of experiment: crystal structure.
For assay [2] the target is unchanged. Description: SEC.
Assay [3] has the same target. As to the kind of experiment: SEC. The source holds these as a separate data set.

In assay [1], “chicken bestrophin-1 crystallization construct, amino acids 1-405 (Best1_(cryst)) (domain or fragment)” displayed a stoichiometry N of 5.

B1: Fab fragment of mouse monoclonal antibody 10D10 (Fab, V domains shown)
VH: QVQLQQSGPELVRPGASVKMSCKASGYTFTNYWMHWVKQRPGQALEWIGMIDPSKSETTLNQKFRGKATLNVDKSSNTAYMQLSSLTSEDSAVYYCAREVYYFDYWGQGTTLTVSS
VL: DIQMTQSPASLSASVGETVTITCRASENIYSYLTWYQQKQGKSPQLLVYNAKTLTEGVPSRFSGSGSGTQFSLKINSLQPEDFGGYFCQHHYGTPPTFGGGTKLEVK
Turning to B1, the equilibrium dissociation constant (Kd) was found to be 350 nM in assay [2] and 15 nM in assay [3].

What is called stoichiometry N is the number of molecules, sites or subunits per partner or assembly. The term Kd denotes the equilibrium constant for the complex coming apart. Read a low Kd as tighter binding.
